Measurements published in the nanobody polyreactivity screen of Harvey et al. (2022).

Assay: yeast display, Sf9 membrane polyspecificity reagent, FACS + sequencing; frameworks hold sequencing errors
In short: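 Galactose-induced (36–48 hours) yeast carrying a synthetic nanobody display library were exposed to 10% biotinylated, detergent-solubilized Sf9 membrane reagent at 4 °C for 1 hour. FACS followed streptavidin microbead enrichment, using low and high (top ~1%) gates for expression (anti-HA) and reagent binding (streptavidin). Colony PCR, MiSeq 2 × 250 sequencing and CDR-length filtering followed. Labels for polyreactivity reflect the gate of origin.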

| Sequence | polyreactivity (PSR sort gate) |
| --- | --- |
| QVQLVESGGGLVQAGGSLRLSCAASGRIFGYYAMGWYRQAPGKEREWVAAINSGGSTNYADSVKGRFTISRDNAKNTVYLQMNSLIPEDTAVYYCAAGWRYRYFRSRNFYPYYYWGQGTQVTVSS | high polyreactivity |
| QVQLVESGGGLVQAGGSLRLSCAASGIIFGTYAMGWYRQAPGKERELVAAITRSGGSTYYADSVMGRFTISRDNAKNTVYLQMNSLKPEDTAVYYCAASSTWYGYYIYVFRAYDYWGQGTQGTVSS | low polyreactivity |
| QVQHVESGGGLVQAGGSLRLSCAASGFTFYGNSMGWYRPAPGKERELVAGISWRGGSTYYADSVKGRFTISRDNAKNTVYLQMNSLKPEDTAVYYCAAYLWTNYYLWEYDYWGQGTQVTVSS | high polyreactivity |
| QVQLVESGGGLVQAGGSLRLSCAASGRTFGGYTMGWYRQAPGKERELVAAISWGGGSTYYADSVKGRFTISRDNAKNTVYLQMNSLKPEDTAVYYCAAVSPNLRLFGYRYRYEYWGQGTQVTVSS | high polyreactivity |
| QVQLVESGGGLVQAGGSLRLSCAASGSIFEGYVMGWYRQEPGKERELVATISFSGGSTYYADSVKGRFTISRDNAKTTVYLQMNSLKPEDTAVYYCNALVYHTKGDYGYWGQGTQVTVSS | low polyreactivity |
| QVQLVESGGGLVQAGGSLRLSCAASGSTFRQYAMGWYRQAPGKERELVAAISSSGSTTYYADSVKGRFTISRDNAKNTVYLQMNSLKPEDTAVYYCAAEYTFHYDYWGQGTQVTVSS | low polyreactivity |
| QVQLVDSGGGLVQAGGSLRLTCAASGTFYYYAMGWNRQAPGKERELVAAISYSGGRTYYADSVKGRFTISRDNAKNTVYLQMNSLKPEDTAFYYCNTDARSKKYIFDFDYWGQGTQVTLSS | high polyreactivity |
| QVQLVESGGGLVQAGGSLRLSCAASGSTFSGNAMGWYRQAPGKERELVAGIRQSGDSTYYADSVKGRFTISRDNAKNTVYLQMNSLKPEDTAVYDCNARAFPFGTGVQGFGFGYWGQGTQVTVSS | low polyreactivity |
| QVQLVESGGGLVQAGGSLRLSCAASGRIISVNAMGWYRQAPGKERELVAAITTRGGTPYYADSVKGRFTISRDNAKNTVSLQMNSLKPEDTAVYYCAAESSWSVYWEWAHDYWGQGTQVTVSS | low polyreactivity |
| QVQLVESVVGLVQAGGSLRLSCAASVRTFVEYSMGWYRQAPGQERELVAAISSGGGSTYYADSVKGRFTISRDNAKNTVYLQMNSLKPEDTAVSYCATVGYRHRGWTSGYWGQGTQVTVSS | high polyreactivity |
| QFQLVESGGGLDQAGGSLRLSCAASGSTSRKYTMGWYRQAPGTDRELVATISWSGGSTNYADSVKGRFTISRDNAKNTVYLQMNSLKPEDTAVYYCNAYVSPRYRGSRYYYWGQGTQVTVSS | high polyreactivity |
| QVQLVESGGGLVQAGGSLRLSCAASGRILPYYAMGWYRQEPGKERELVAAITGGGGSTYYADSVKGRFTISRDNAKNTVYLQMNSLKPEDTAVYYCAKPRGRASLALYRFSLYYYWGQGTQVTVSS | high polyreactivity |
| QVQLVESGGGLVQAGGSLRLSCAASGFTILRYAMGWDRQAPGTERELVAAIDWSGGSTYYADSVKGRFTISRDNAKNTVYLQMNSLKPEDTAVYYCNARTINVPSRFNYWGQGTQVTVSS | low polyreactivity |
| QVQLVESGGGLVQAGGSLRLSCAASGIIFRLNAMGWYRQAPGKVRELVAAIRRRGGSTYYADSVKGRFTISRDNAKNTVYLQMNSLKPEDTAVYYCAKDPHGSDFGYWGQGTQVTVSS | low polyreactivity |
| QVQLVESGGGLVQAGGSLRLSCAASGFNFPYNAMGRYRQAPGKERELVAAITSGSNTYYADSVKGRFTISRDNAKNTVYLQMNSLKPEDTAVYYCAARGHGAYGYWGQGTQVTVSS | low polyreactivity |
| LVQLVESGGCLVQAGGSLRVSCAASGTIFQIKAMGWYRQAPGIEREKVATIRWRGSSTYYADSVKGRFTISRDNAKNTVYLQKNSLKPEDTAVYYSAARAGTLNSGGYYSWGQGTQVSVSS | high polyreactivity |
| QVQLVESGGGLVQAGGSLRLSCPASGFTFVRYAMGWYRQAPGKERELVAAISSSGSSTYYADSVKGRFTISRDNAKYTVYLQMNSLKPEDSAVYYCNARAGRGEDYWGQGTQVTVSS | low polyreactivity |
| QVQLVESGGGLVQAGGSLRLSCAASGSTSYVYAMGWYRQAPGKERELVAAISGSGGRTYYADSVKGRFTISRDNAKNTVYLQMNSLKPEDTAVYYCAADYIFRRYPVGGIYDYDYWGQGTQVTVSS | high polyreactivity |
| QVQLVETGGGLVQAGGSLRLSCAASGLTFDENAMGWYRQAPGINYSGASTYYADSVKGRFTISRDNAKNTVYLQMNSLKPEDTAVYYCAAEVVAQMNYWGQGTQVTVSS | low polyreactivity |
| QVQLVESGGGLVQAGGRLRLSCASSGGTLSRYAMGWYRQAPGKERELVAAINWIGGRTSYADSVKGRFTISRDNAKNTVYLQMKSLKPEDTAVYYCAAQYYYAPPWRKYDYWGQGTQVTVSS | high polyreactivity |
| QVQLVESGGGLVQAGGSLRLSCAASGYTFPIYAMGWYRQAPGTERELVAGISKNGGSTYYADSVKGRFTISRDNAKNTVYLQMNSLKPVDTAVYYCNASAWGRPYYLGSYFVYPGYEYWGQGTEVTVSS | low polyreactivity |
| QVQLVESGGGLVQAGGSLRLSCAASGRTFKAYAMGWYRQAPGKERELVAGISWSGGNTYYADSVKGRFTISRDNAKNTVYLQMNSLKPEDTAVYYCAASLGGLWEDDYWGQGTQVTVSS | high polyreactivity |

| Sequence | polyreactivity (PSR sort gate) |
| --- | --- |
| QVKLVESGGGLVQAGGSLRFSCAASGSTFTKNARGWYRQAPGKERELVAGISRSGGNTYYADSVMGRFTISRDNSKNTVYLQLNRLKPEDTAVSYCAKVVRGIDSNLDDYWGQGTQVTVSS | high polyreactivity |
| QVQLVESGGGLVQAGGSLRLSCAASGRTFWYYTMGWYRQAPGKERELVAANTSVGSTYYADSVKGRFTISRDNAKNTVYLQMNSLKPEDTAVYYCATLYSYTHQSFDHWGQGTQVTVSS | high polyreactivity |
| QVQLVESGGGLVQAGGSLRLICAASGRIFPFYAMGWYRPEPGKERELVASISWSGGSTYYADSVKGRFTISRDNAKNPVYLQMNSLKPEDTAVFFCAARRWIADPGRIMDYWGQGTQVTVSS | high polyreactivity |
| QVQLVESGGGLVQAGGSLRLSCAASGFIFHPNTMGWYRPAPGKERELVAGISYSGGITYTDSVKGRFTISRDNAKNTVYLQMNSLQPEDTAVYYFNARTKVAYYRHYYWGQGTQVTVSS | low polyreactivity |
| QVQLVESRGGLVQAGGSLRLRCAASGFILDTYGIVWYRQAPGKERELVAAIYQSDVSTYYADSVKGRFTISRDNAKNTVYLQMNSLKPEDTAVYYCAADRGVLRWFCQVLYDYWGQGTQVTVSS | low polyreactivity |
| QVQLVESGGGLVQAGGSLRLSCAASGSTFWPYTMGWYSQAPGKERELVAAISLSGGSTYYADSVKGRFTISRDIAKNTVYLQMNSLKPEDTAVYYCAAEGGYQNWHYLYDYWGQGTQVTVSS | low polyreactivity |
| QVQLVESGGGLDQAGGSLRLSCAASGFTFYPYTMGWYRQAPGKERELVADITYDSTYYADSVKGRFTISRDNAKNTVFLQMNSLKPADTAVYYCNATGYSVSRSAYWYGWYDYWGQGTQVTVSS | low polyreactivity |
| QVQLVESGGGLVQAGGSLRLSCAASGSTFPYYVMGRYRQAPGKERELVAAITRSTGTTYYADSVKGRFTISRDNAKNTVYLQMNSLKPEDTAVYYCAARSSSSPRWYGGDYWGQGTQVTVSS | low polyreactivity |
| QVQLLESGGGLVQAGGSLRLSCAASGITFEHYAMGWYRPAPGKERELVAAITWSGDSTNYADSVKGRFTISRDNAKNTVYLQMNSLNPEDTAVYYCAAYAYAGLYSGTWGYDYWGQGTQVTVSS | low polyreactivity |
| QVQHVESGGGLVQAGGSLRLSCAASGSIFNRYAMGWYRQAPGKERELVAAITYNGGSTYYADSVKGRFTISRDNAKNTVYLQMNSLKPEDTAVYYCAAERYNGYDYWGQGTQVTVSS | high polyreactivity |
| QVQLVESGGGLVQAGGSLRLSCAASGRTFCVNAMGWSRQAPGKERELVAAITGGGSTYYADSVKGRFTISRDNAKNTVYLQMNSLKPEDTAVYYCNADRRRRSGGFAGWHFQRNDYWGQGTQVTVSS | low polyreactivity |
| QGQLVESGRGLVQAGGSLSLSCAASGSTFFIYAMGWYRQAPGKERELVAAINRSGGRTYYADSVKGRFTISRYTAQNTVYLQMNSLKPEDTAVYYCAAYLGPYVRFYYWGQGTQGTVSS | high polyreactivity |
| QVQLVESGGGLVQAGGSLRLSCAASGSTFYVYAMGWYRQAPGKERELVAAITSGSSTYADSVKGRFTISRDNAKNTVYLQMNSLKPEDTAVFYCNALSRTAWSYYLYPSTPFDYWGQGTQVTVSS | low polyreactivity |
| QLQLLESAVGLVQAGGSLRLSCASSGRIFTQNTMGWYRQAPAKESELVAAINYSGGRTNYADSVKGRFTISRDNAKNTVYLQMNSLKPEDTAVYYCAAGYRRATYGYWGQGTQVTVSS | high polyreactivity |
| QVQLVESGGGLVQAGGSLRLSCAASGSIFASYAMGWYRQAPGKERELVAVITRSGGSTYYADSVKGRFTISRDNAKNTVYLQMNSLKPEDTAVYYCAAQYGRTYYSRREYWGQGTQVTVSS | high polyreactivity |
| HVQHVESGGGLVQAGGSLRVSCAASGSTFYYNAMGWYRQAPGKERELVARISRSGASTYYADSVKGRFTISRDIAKNSVYLQMNSLKPEDTAVYYCATRNLGHERWYYYWGQGTQVTVSS | high polyreactivity |
| QVQLVESGGGLVQAGGSLRLSCAASGFIFYYNAMGWYRQAPGKERELVATIRGSGGSTYYADSVKGRFTISRDTAKNTVYLHMNSLKPEDTAVYYCATTIYGLTSRLYYWGQGTQVTVSS | high polyreactivity |
| QVQLVESGGGLVQAGGSLRLSCAASGSTFYYNAMGWYRQAPGKERELVADISWRGGITYYADSVKGRFTISRDNAKNTVYLQMNSLKPEDTAVYYCAADIYPDWIYLLYGYWGQGTQVTVSS | low polyreactivity |
| QVQLVQSGGGLVQAGGSLRLSCAASGSTFPQNAMGWNRQAPGKERELVAVISRSGGNTYYADSVKGRFTISRDNAKNTVYLQMNSLKPEDTAVYYCATRVNTTYDYWGQGTQVTVSS | low polyreactivity |
| QVHLVESGGGFVQAGGSLRVSCAASGRSCGYNAMGWYRQAPGKERELVAAITSGGSTYYADSVKGRFTISRDNAKHTVYLQMNSLKPEDTAVYYCAARFSYWKTKRAYDWGQGTQVTVSS | high polyreactivity |
| QVQLVESGGGLVQAGGSLRLSCAASGFTFQLYAMGWYRQAPGKERELVAAISSSGTSTYYADSVKGRFTISRDNAKNTVFLQMNSLKPEDTAVYYCAARGPYTYRRYGYWGQGTQVTVSS | high polyreactivity |
